Measurements reported in US20260176358A1 (JIANGSU HENGRUI PHARMACEUTICALS, published 2026).
Numbering of substitutions follows the chain as printed.

B1: C21H2L2 (antibody, human IgG1, kappa, V domains shown)
VH: EVQLVQSGAEVKKPGASVKVSCKASGYTFTDYYMNWVRQAPGQRLEWIGDINPNQGGTNYNQKFKGRATLTVDKSASTAYMELSSLRSEDTAVYYCASIIIVPNYFDYWGQGTTVTVSS
VL: DIQMTQSPSSLSASVGDRVTITCKASQNVDTNVAWFQQKPGKSPKALIYSASYRYSGVPSRFSGSGSGTDFTLTISSLQPEDFATYYCQQYNNYPYTFGGGTKVEIKR
B2: C28H1L1 (antibody, human IgG1, kappa, V domains shown)
VH: B1 VH with I48M, Q55N, G56V, G57V, N59T, A68V, L70I, N104D
VL: B1 VL with L11V, D30G, T31S, F36Y, N93S
B3: C9H3L1 (antibody, human IgG1, kappa, V domains shown)
VH: EVQLVQSGAEVKKPGASVKVSCKASGYTFTDYYMNWVRQAPGQRLEWMGVINPYQGRTTYNRKFKGRVTITVDKSASTAYMELSSLRSEDTAVYYCASLLIRPHYFDYWGQGTTVTVSS
VL: B1 VL with D30G, F36Y, F83V, Y87H, N93F, G100Q, V104L
B4: C9H1L1 (antibody, human IgG1, kappa, V domains shown)
VH: B3 VH with Q55N, G56V
VL: B1 VL with D30G, F36Y, F83V, Y87H, N93F, G100Q, V104L
B5: C28H5L1 (antibody, human IgG1, kappa, V domains shown)
VH: B1 VH with Q55S, G57V, N59T, N104D
VL: B1 VL with L11V, D30G, T31S, F36Y, N93S
B6: C21H1L2 (antibody, human IgG1, kappa, V domains shown)
VH: B1 VH with Q55N, G56V
VL: B1 VL
B7: C9H2L1 (antibody, human IgG1, kappa, V domains shown)
VH: B3 VH with M48I, Q55N, G56V, V68A, I70L
VL: B1 VL with D30G, F36Y, F83V, Y87H, N93F, G100Q, V104L
B8: C9H6L1 (antibody, human IgG1, kappa, V domains shown)
VH: B3 VH with M48I, Q55S, V68A, I70L
VL: B1 VL with D30G, F36Y, F83V, Y87H, N93F, G100Q, V104L
B9: C21H4L1 (antibody, human IgG1, kappa, V domains shown)
VH: B1 VH with Q55T
VL: B1 VL with S43A, A46S
B10: C9H5L1 (antibody, human IgG1, kappa, V domains shown)
VH: B3 VH with Q55S
VL: B1 VL with D30G, F36Y, F83V, Y87H, N93F, G100Q, V104L
B11: C9H4L1 (antibody, human IgG1, kappa, V domains shown)
VH: B3 VH with M48I, V68A, I70L
VL: B1 VL with D30G, F36Y, F83V, Y87H, N93F, G100Q, V104L
B12: C21H1L1 (antibody, human IgG1, kappa, V domains shown)
VH: B1 VH with Q55N, G56V
VL: B1 VL with S43A, A46S
B13: C28H4L1 (antibody, human IgG1, kappa, V domains shown)
VH: B1 VH with G57V, N59T, N104D
VL: B1 VL with L11V, D30G, T31S, F36Y, N93S
B14: C28H7L1 (antibody, human IgG1, kappa, V domains shown)
VH: B1 VH with Q55T, G57V, N59T, N104D
VL: B1 VL with L11V, D30G, T31S, F36Y, N93S
B15: C21H3L1 (antibody, human IgG1, kappa, V domains shown)
VH: B1 VH with I48M, Q55S, A68V, L70I
VL: B1 VL with S43A, A46S
B16: C28H3L1 (antibody, human IgG1, kappa, V domains shown)
VH: B1 VH with I48M, G57V, N59T, A68V, L70I, N104D
VL: B1 VL with L11V, D30G, T31S, F36Y, N93S
B17: C9H7L1 (antibody, human IgG1, kappa, V domains shown)
VH: B3 VH with Q55T
VL: B1 VL with D30G, F36Y, F83V, Y87H, N93F, G100Q, V104L
B18: C21H4L2 (antibody, human IgG1, kappa, V domains shown)
VH: B1 VH with Q55T
VL: B1 VL
B19: C1H1L1 (antibody, human IgG1, kappa, V domains shown)
VH: EVQLVQSGAEVKKPGSSVKVSCKASGYTFSTSWMNWVRQAPGQGLEWMGQIYPGDGYTNYSGKFRGRVTITADKSTSTAYMELSSLRSEDTAVYYCAGDYEALWGQGTTVTVSS
VL: DIVMTQTPLSLPVTPGEPASISCRSSQSLVHSNGNTYFHWYLQKPGQSPQLLIYEVSNRFSGVPDRFSGSGSGTDFTLKISRVEAEDVGVYYCSQSTHVPFTFGQGTKLEIKR
B20: C1H1L2 (antibody, human IgG1, kappa, V domains shown)
VH: B19 VH
VL: B19 VL with N33S
B21: C1H2L1 (antibody, human IgG1, kappa, V domains shown)
VH: B19 VH with S61Q
VL: B19 VL
B22: C1H3L2 (antibody, human IgG1, kappa, V domains shown)
VH: B19 VH with S61N, G62V
VL: B19 VL with N33S
B23: PL-1 (bispecific antibody)
chain 1: not shown
chain 2: DIVLTQSPASLAVSPGQRATITCRASESVSIHGTHLMHWYQQKPGQPPKLLIYAASKLESGVPARFSGSGSGTDFTLTINPVEAEDTANYYCQQSFEDPLTFGQGTKLEIKGGGGSGIPPKIECLPIDISIDEGKVLTVASAFTGEPTPEVTWSTGGRKIHSQEQGRFHIENTDDLTTLIIKDVQKQDGGLYTLTLRNEFGSDSATVNIHIRSI
chain 3: not shown
chain 4: not shown
B24: PL-5 (bispecific antibody)
chain 1: not shown
chain 2: B23 chain 2 with L176S, I180T
chain 3: not shown
chain 4: not shown
B25: PL-4 (bispecific antibody)
chain 1: not shown
chain 2: B23 chain 2 with A142C, L176S, I180T
chain 3: not shown
chain 4: not shown
B26: PL-8 (bispecific antibody)
chain 1: not shown
chain 2: B23 chain 2 with L176S, I180T
chain 3: not shown
chain 4: not shown
B27: PL-6 (bispecific antibody)
chain 1: not shown
chain 2: B23 chain 2 with V136C, L176S, I180T
chain 3: not shown
chain 4: not shown
B28: PL-14 (bispecific antibody)
chain 1: not shown
chain 2: B23 chain 2 with G112R, G113T, G114V, G115A, L176S, I180T
chain 3: not shown
chain 4: not shown
B29: PL-18 (bispecific antibody)
chain 1: not shown
chain 2: B23 chain 2 with G112R, G113T, G114V, G115A, V136C, L176S, I180T
chain 3: not shown
chain 4: not shown
B30: PL-2 (bispecific antibody)
chain 1: not shown
chain 2: B23 chain 2 with L176S, I180T
chain 3: not shown
chain 4: not shown
B31: PL-11 (bispecific antibody)
chain 1: not shown
chain 2: B23 chain 2 with G112R, G113T, G114V, G115A, L176S, I180T
chain 3: not shown
chain 4: not shown
B32: PL-7 (bispecific antibody)
chain 1: not shown
chain 2: B23 chain 2 with A142C, L176S, I180T
chain 3: not shown
chain 4: not shown
B33: PL-13 (bispecific antibody)
chain 1: not shown
chain 2: B23 chain 2 with G112R, G113T, G114V, G115A, A142C, L176S, I180T
chain 3: not shown
chain 4: not shown
B34: PL-10 (bispecific antibody)
chain 1: not shown
chain 2: B23 chain 2 with A142C, L176S, I180T
chain 3: not shown
chain 4: not shown
B35: PL-15 (bispecific antibody)
chain 1: not shown
chain 2: B23 chain 2 with G112R, G113T, G114V, G115A, V136C, L176S, I180T
chain 3: not shown
chain 4: not shown
B36: PL-9 (bispecific antibody)
chain 1: not shown
chain 2: B23 chain 2 with V136C, L176S, I180T
chain 3: not shown
chain 4: not shown
B37: PL-12 (bispecific antibody)
chain 1: not shown
chain 2: B23 chain 2 with G112R, G113T, G114V, G115A, V136C, L176S, I180T
chain 3: not shown
chain 4: not shown
B38: PL-3 (bispecific antibody)
chain 1: not shown
chain 2: B23 chain 2 with V136C, L176S, I180T
chain 3: not shown
chain 4: not shown
B39: PL-17 (bispecific antibody)
chain 1: not shown
chain 2: B23 chain 2 with G112R, G113T, G114V, G115A, L176S, I180T
chain 3: not shown
chain 4: not shown

Target: T1, human CGRP (human, UniProt P06881 83-119)
T1 peptide (looked up): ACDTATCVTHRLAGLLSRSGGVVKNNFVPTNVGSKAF
Test: ELISA, coated CGRP
Experimental: (§1) In this test example, the abilities of the chimeric antibodies and humanized antibodies of C1 #, C9 #, C21 #, and C28 #to bind to human CGRP and rat CGRP were assessed using ELISAs. Plates were coated with […] human CGRP and rat CGRP, respectively, and blocked, and the antibodies, serially diluted, were then added. The plates were incubated for 1 h and washed, and a horseradish peroxidase-labeled anti-human Fc secondary antibody was then added. After incubation, color development was performed. […] The plates were incubated for 1 h and washed, and the antibodies, serially diluted, were then added. The plates were incubated for 1 h and washed, and a horseradish peroxidase-labeled streptavidin secondary antibody was then added. After incubation, color development was performed.

Binder	EC50 [nM]
B1	3.4
B2	1.34
B3	1.3
B4	1.58
B5	1.58
B6	2.57
B7	1.41
B8	1.33
B9	2.9
B10	1.29
B11	1.25
B12	2.54
B13	1.43
B14	1.47
B15	3.57
B16	1.65
B17	1.3
B18	2.8
B19	1.83
B20	2.72
B21	2.61
B22	1.39

Target: T2, rat CGRP (rat, UniProt P01256 83-119)
T2 peptide (looked up): T1 peptide (looked up) with A1S, D3N, N25D, K35E
Test: ELISA, coated CGRP
Experimental: as §1

Binder	EC50 [nM]
B1	9.27
B2	6.28
B3	4.27
B4	5.3
B5	3.72
B6	5.26
B7	4.32
B8	3.13
B9	7.36
B10	4.48
B11	4.2
B12	3.86
B13	6.45
B14	2.72
B15	7.94
B16	3.97
B17	3.57
B18	5.68
B19	3.1
B20	2.44
B21	2.38
B22	1.97

These binders were tested against hPDL1 (human, UniProt Q9NZQ7 19-238) (assay: ELISA of Test Example 4 of WO2021139758).
hPDL1, sequence (Q9NZQ7 19-238 limits assumed): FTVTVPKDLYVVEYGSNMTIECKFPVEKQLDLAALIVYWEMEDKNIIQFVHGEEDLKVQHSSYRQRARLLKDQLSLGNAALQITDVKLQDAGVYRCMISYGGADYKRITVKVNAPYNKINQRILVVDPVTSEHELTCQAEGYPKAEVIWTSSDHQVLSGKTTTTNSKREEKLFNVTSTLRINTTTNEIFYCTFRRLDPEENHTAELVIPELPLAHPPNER

Binder	EC50 [nM]
B23	1.6
B24	0.7
B25	0.7
B26	1.4
B27	0.8
B28	1.3
B29	1.6
B30	0.5
B31	0.6
B32	0.5
B33	0.5
B34	0.6
B35	1.4
B36	0.6
B37	0.5
B38	0.6
B39	1.4

What follows are binders tested against hCTLA4 (human, UniProt P16410 36-161) (assay: ELISA of Test Example 4 of WO2021139758).
hCTLA4, sequence (P16410 36-161 limits assumed): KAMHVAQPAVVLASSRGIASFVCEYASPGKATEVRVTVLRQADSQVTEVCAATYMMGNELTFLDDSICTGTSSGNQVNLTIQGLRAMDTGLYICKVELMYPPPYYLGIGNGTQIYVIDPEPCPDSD

Binder	EC50 [nM]
B23	16.5
B24	6.7
B25	6.5
B26	14.5
B27	5.3
B28	6
B29	6.7
B30	8
B31	5.6
B32	7.3
B33	4.4
B34	6.9
B35	3.2
B36	5.5
B37	8
B38	7.9
B39	6.2
